In article PMC5472695:

Target: His-tagged recombinant amelogenin (wild-type) (mouse) (UniProt P63277)
Test: SDS PAGE with anti-amelogenin Western blot; crude 3% acetic acid E. coli extract and nickel column fractions; non-reducing SDS loading buffer, heated at 90°C for 1.5 min, 12% resolving gel; blot with rabbit anti-amelogenin antibody

His-tagged recombinant amelogenin (wild-type) (from UniProt P63277 17-210) (natural protein)
stoichiometry N: 2
